The source of these data is the DeepSol protein solubility set.

The data set in a line: soluble on expression in E. coli; label from the status in PepcDB or PDB records.
For “MGHHHHHHSHMVPGSEGPARAGSVVADVVFVIEGTANLGPYFEGLRKHYLLPAIEYFNGGPPAETDFGGDYGGTQYSLVVFNTVDCAPESYVQCHAPTSSAYEFVTWLDGIKFMGGGGESCSLIAEGLSTALQLFDDFKKMREQIGQTHRVCLLICNSPPYLLPAVESTTYSGCTTENLVQQIGERGIHFSIVSPRKLPAL”, the “soluble on expression in E. coli” value is “not soluble”.

On to “MGSDKIHHHHHHMLEMKATGKSKGQWMFYRNFDDTVDYLSDHTRILSYNPFCHKVEPLDRDEAYRWHFRVTDPQNNPFDVIFNIQQETEILVDLPDEVASMDPEEMSDEMIRQFTVGRKITWRPLAQDKTFTMPEKYLFEGQVTADMLIVPVQQEQTRVDFDLWVNVAFLLYPAFRIVPEKVVRTMVSTGMSLIMQTATNHMFQKISKEFGKIRKL”, for which the “soluble on expression in E. coli” value is recorded as “not soluble”.

On to “MSLDDLAQLANEVKASFVRLVNEDANSHMIGTAMSTIGRAFTQRIIELVEAELGAAPLPYCFVAFGSMGRDEQLIVTDQDNALILDDRYDVQQHGAYFAQFAELVCRGLDRCGYPLCDGEIMASNPKWRMTRKEWETCFADWIDNPNPQALLNASIFFDLDGVYGRTKWAEQLSGFIVRRARRNQRFLACLARNALNRTPPLGFFKNFVMEKDGRHNNSINLKRRGTAPLADLIRVHALAAGSRAKNSFERLDDVIEAGLLPQGKGKDLRDALEFIAMVRIRHQAIDVEQEGHHHHHH”, for which the “soluble on expression in E. coli” value was “not soluble”.

On to “MSLRITGERIYLRPFQIIDANQKLAFHLANKAFFEGYSMERDDRFYTIEEQQSLISRLEDFAASDVEYYYGIFLNDTDELIGTINLFSILRESLQSAFIGYFLDKKHNGNGYATEAVQLIVDFGFDILGLHRIEAGVMPKNERSKQVLLKAGFHLEGLAVQNVRINGTWEDHQVLAIINPGDEGHHHHHH”, for which the “soluble on expression in E. coli” value is given as “soluble”.

As for “MFQLSVQDIHPGQQAGNKEEAIRQVAAALVSAGNVADGYVNGMLAREQQTSTFLGNGIAIPHGTTDTRDQVLKTGVQVFQFPQGVTWGEGQTAYVAIGIAASSDEHLGLLRQLTHVLSDDAVAAQLQSATTAEELRALLMGEKQSEALKLDNETLSLDVAASDLLTLQALNAARLKEVGAVDAAFVSHVINDTPLNLGQGVWLNDSAEGNLRSAVAVSRAANAFTRDEQPVSLLVTVAMADEQPTAVLNRLSKLLLDKKAEHLLKADAATVLALLTSDDAIAEDVLSAEFVVRNEHGLHARPGTMLVNTIKQFSSDITVTNLDGSGKPANGRSLMKVVALGVKKGHRLRFTAQGEDAQQALDAIGEAIAAGLGEGA”, the “soluble on expression in E. coli” value was “not soluble”.

Regarding “MSLQPSKRYEIGISQTIGKNDRMQDTANVLGELFPNIDIIGIFDGHNGEEAARYCLISMKNEFNCLNPKDCEHQLPQIFESIHNNISSQTISGTTASICIIRSDDVVLAHVGDSPIYFYENGGKVINIKGVDRVNGQINLSRSLGDKLLQPPLTYKPDISIHSLSMKYIVIVTDGVTDSLSDSEMEIILSQPLSPDQIAATIRNNAFINGSVDNISVIVIQIIEGHHHHHH”, the “soluble on expression in E. coli” value is listed as “soluble”.

In the case of “MASYSSILVLSVCTIGALAVMEHNSYYPGGHSTSYYQPFQTDTYGSKYYNTESYGKYDEHGNNGKDSHYEPNYYNPIASYYHSYMPKYHGGHNDYYTKYNQYTPYYGGSHQQNYYEQPKHDDYHGGDHHYDMHK”, the “soluble on expression in E. coli” value is given as “not soluble”.

In the case of “VPVQLADLKEVRIAYQSIGSESDPALLLVMGLGGQLIHWPDEVVVALCQQGYRVIRYDNRDVGLSTWVQQPADANLTVEVLRYKLGLPVSSPYSLTDMADDALGLMDALQIRQFHVLGASMGGMIAQHLADLAPSRVESLTLIMTSSGAQGLPMPNAALLQLLARRGAPDREVALEQQADLLAALGSPQVKDDREQLLHQAAVSYDRAFNPEGVKRQIMAILAEPSRVELLNRLRLPVLVVHGTADPLLPVMHGVHVAAHIQGSQLRLIPGLAHRFQEAFKAPLLGAVLPYLKA”, the “soluble on expression in E. coli” value was “not soluble”.

In the case of “MTEHLLAMNQKLKNPDEALSLFGNQDSFLKLMEKDLNLNIITRGETIYVSGDDESFQIADRLLGSLLALIRKGIEISERDVIYAIKMAKKNELEYFESMYEEEITKNAKGKSIRVKTMGQREYVAAMKRNDLVFGIGPAGTGKTYLAVVKAVHALKNGHIKKIILTRPAVEAGESLGFLPGDLKEKVDPYLRPLYDALHDVLGADHTERLMERGIIEIAPLAYMRGRTLDDAYVILDEAQNTTPAQMKMFLTRLGFSSKMIITGDVSQIDLPKGVKSGLAVAKEMLKGIDGISMIELDQTDVVRHPLVAKIIEAYDKQN”, the “soluble on expression in E. coli” value is on record as “not soluble”.

On to “SANPKLLGLELSEAEAIGADSARFEELLLQASKELQQAQTTRPESTQIQPQPGFCIKTNSSEGKVFINICHSPSIPPPADVTEEELLQMLEEDQAGFRIPMSLGEPHAELDAKGQGCTAYDVAVNSDFYRRMQNSDFLRELVITIAREGLEDKYNLQLNPEWRMMKNRPFMGSISQQNIRSEQRPRIQELGDLYTPAPGRAESGPEKPHLNLWLEAPDLLLAEIDLPKLDGALGLSLEIGENRLVMGGPQQLYHLDAYIPLQINSHESKAAFHRKRKQLMVAMPLLLVPS”, for which the “soluble on expression in E. coli” value is recorded as “soluble”.

“MSLFPILETDRLILRQITDQDAEAIFACFSNDEVTRYYGLENMESIEQAISMIQTFAALYQEKRGIRWGIERRDTKELIGTIGFHALAQKHRRAEIGYEIIPEHWRNGFASEVISKVVSYGFSALGLSRIGAVVFTDNEASNRLLLKMGFQKEGVLRQYMYSKWDSIEGGSHHHHHH”: the “soluble on expression in E. coli” value is listed as “soluble”.

On to “MEYKSSPKRPYYLRGFYDWLVDNSFTPYLVVDATYLGVNVPVEYVKDGQIVLNLSASATGNLQLTNDFIQFNQRFKGVSRELYIPMGAALAIYARENGDGMMFEPEEIYDELNIEPDTEQPTGFYEAVD”, for which the “soluble on expression in E. coli” value is on record as “soluble”.

“MNMTKNTMGTKLPRKLEQKMAVVGEQIKLARLRRNLSVAQVAERATCSPLTVSRIEKGAPTVAIGIYLRVLYALQLDDDILWLAKEDKLGKTLQDLSLKTRERASKKE”: the “soluble on expression in E. coli” value was “not soluble”.

For the sequence “LQFAYKDPEKNWNRNSVKGLVASLINVKDNSTATALEVVAGERLYNVVVDTEVTAKKLLEKGELKRRYTIIPLNKISARCIAPETLRVAQNLVGPDNVHVALSLVDYKPELQKGMEFVFGTTFVCNNMDNAKKVAFDKRIMTRTVTLGGDVFDPHGTLSGG”, the “soluble on expression in E. coli” value is on record as “soluble”.

For “MAHHHHHHMAERSSTLVINEAKTKNRLSDSLRSPTDRTREHLISHRNFSSVLESAADCTSASSTPDLQEEEDVQHKRALDLFSATPHSGEFSPLIEWLLRRGERGDVGAPTASQKDGDEYTQASFFNEDYIMNLCAAATAVLGKEPALLDLEVVAHDTLVVVGDIHGQFQDLYTSVLCQQYDRRRCNPEGRDCRFLFMGDYVDRGPHSLEVVLLLLALKVEYPTLVYLTRGNHEEEKTSRVYGFLTEATSSLGAAAGTAVWSAVNKVFLDLPLAAIVQTLYMRFFVTHGGLSPGLQNVEVICALERHNYSCGNITAAEDDLIAGLLWSDPTNEVAMYKRNPRGCGFLFGPSASNRFCADNNFDFICRAHQVAMEGYMWTHNDRVLTVFSAPNYCGVNRNKGAVLLIKGYSRRPIVQQYDSAEKSEAAPARKTDFAFADMFA”, the “soluble on expression in E. coli” value is reported as “not soluble”.

For the sequence “MKTTTYNTDWAAEKTKIRSFFDEYYVDNEDGSGKAFPYRDQVFEIARRDKQAIVVNVDHIKESDIPDALELSEAITSNTKRYEVLFKDTISDMIQDYLGDKQAPVIDALDAYMFQRLHMDRNEGAANEEVSLQDKRKKYPPQLLQRFEVYFTTDDAAHETCVRNIKATEIGHLVSMKGVVIRATEVKPCVEVMTYTCDTCAAEVYQPVKGMQFTPPVNCPNKECVEAKANGRLHMQLRGSKFVKFQELKIQELSEQVPVGSIPRTMTVHVYGEMTRKCNTGNVVHVSGVFLPIMQSGFRPTGGLVADTYLEAHYINNLDDNPTFNGVQSAELEVLRRKGDNYETLAASIAPEIFGHVDVKKCLLMALVGGNDNSSNGMKIRGCINVLMMGDPGVAKSQLLGYVNRLAPRSQYTTGRGSSGVGLTAAVMKDPVTGEMSLEGGALVLADGGICCIDEFDKMMDHDRTAIHEVMEQQTISIAKAGIMTTLNARTAIIAAANPAYGRYNPNRSIEQNVDLPAALLSRFDLILLMQDKADRENDKILAEHITYVHQHGCHPNREKKDLISLETLREYISLCKTYTPTVDPALRERIVEAYVEMRRDARYSSDPTFVSPRMILGIVRMATARAKLRLSTIVDESDVEEALRLMQFAKDSLRPEQNKIEKRMAPVDAAFAVLRELYHADNAPIAISNAIQRCARKGISEVALKKCLDQYTANGLLVMDRQNIVFAMN”, the “soluble on expression in E. coli” value is given as “not soluble”.
